PMC12822431, “A Pan‐TE Map Reveals the Important Role of Transposable Elements in Gene Expression and Phenotypic Diversity in 2,311 Rapeseed Accessions”

Molecular target: T1, BnaA01G0374400ZS (MYB TF, ortholog of AT3G11280) (Brassica napus (ZS11), UniProt A0A078HEX6 1-259)
T1 sequence: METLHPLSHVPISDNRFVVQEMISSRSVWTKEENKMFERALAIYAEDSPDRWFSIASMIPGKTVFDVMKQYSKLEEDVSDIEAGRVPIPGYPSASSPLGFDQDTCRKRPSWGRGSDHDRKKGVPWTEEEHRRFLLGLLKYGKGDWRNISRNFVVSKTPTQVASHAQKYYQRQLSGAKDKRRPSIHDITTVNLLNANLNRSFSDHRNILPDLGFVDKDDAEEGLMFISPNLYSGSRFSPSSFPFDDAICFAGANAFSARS
Test: EMSA; Beyotime GS009 EMSA kit, room temperature, 20 min, 5% native polyacrylamide gel, chemiluminescent detection; buffer, salt and pH not stated
Settings: protein: recombinant; tags: His; label: biotin; blunt

B1: M2 (M1 with all C nucleotides mutated) (dsDNA)
DNA 1: TTTTTTTATTTATATTAAATTTATT
DNA 2: AATAAATTTAATATAAATAAAAAAA
Question: Does B1 bind?
Answer: no binding
